What was measured:
Experiment in all cases: SPR
[1] = biological target: NL2A (rat neuroligin 2 cholinesterase-like region, with insert A) (rat, UniProt Q62888 46-612)
[2] = biological target: NL1AB (rat neuroligin 1 cholinesterase-like region, with inserts A and B) (rat, UniProt Q62765 48-638)
[3] = biological target: NL3A1A2 (rat neuroligin 3 cholinesterase-like region, with inserts A1 and A2) (rat, UniProt Q62889 42-633)
Sequence of NL3A1A2 (rat neuroligin 3 cholinesterase-like region, with inserts A1 and A2) (Q62889 42-633): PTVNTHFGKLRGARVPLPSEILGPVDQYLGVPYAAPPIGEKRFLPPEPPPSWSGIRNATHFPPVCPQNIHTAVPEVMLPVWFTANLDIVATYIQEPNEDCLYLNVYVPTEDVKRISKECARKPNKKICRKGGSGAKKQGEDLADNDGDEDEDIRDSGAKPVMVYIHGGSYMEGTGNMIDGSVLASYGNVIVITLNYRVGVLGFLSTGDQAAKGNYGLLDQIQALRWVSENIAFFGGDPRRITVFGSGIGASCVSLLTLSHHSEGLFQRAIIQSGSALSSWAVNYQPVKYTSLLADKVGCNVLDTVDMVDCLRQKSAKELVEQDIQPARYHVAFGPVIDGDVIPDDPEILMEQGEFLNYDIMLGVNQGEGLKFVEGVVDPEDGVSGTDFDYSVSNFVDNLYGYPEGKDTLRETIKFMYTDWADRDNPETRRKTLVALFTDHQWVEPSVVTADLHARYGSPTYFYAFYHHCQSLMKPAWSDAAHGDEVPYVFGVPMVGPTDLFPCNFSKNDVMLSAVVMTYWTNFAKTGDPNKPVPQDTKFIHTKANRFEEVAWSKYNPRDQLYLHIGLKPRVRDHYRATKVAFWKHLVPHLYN

Sequence of NL2A (rat neuroligin 2 cholinesterase-like region, with insert A) (Q62888 46-612): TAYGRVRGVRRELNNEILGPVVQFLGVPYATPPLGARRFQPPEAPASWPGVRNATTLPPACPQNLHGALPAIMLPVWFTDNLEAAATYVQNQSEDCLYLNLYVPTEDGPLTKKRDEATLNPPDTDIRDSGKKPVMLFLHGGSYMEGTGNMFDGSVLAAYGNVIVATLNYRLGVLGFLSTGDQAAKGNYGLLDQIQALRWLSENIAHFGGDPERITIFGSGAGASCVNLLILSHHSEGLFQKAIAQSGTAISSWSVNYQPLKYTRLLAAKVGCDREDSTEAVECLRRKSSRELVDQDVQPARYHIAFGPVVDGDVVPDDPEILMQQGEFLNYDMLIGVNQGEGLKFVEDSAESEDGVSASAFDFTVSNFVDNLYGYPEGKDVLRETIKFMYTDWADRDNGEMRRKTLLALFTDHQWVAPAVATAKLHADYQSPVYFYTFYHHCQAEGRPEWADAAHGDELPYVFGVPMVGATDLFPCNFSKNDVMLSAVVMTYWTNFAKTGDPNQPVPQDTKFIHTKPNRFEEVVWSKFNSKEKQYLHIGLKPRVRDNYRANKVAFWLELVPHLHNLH
Sequence of NL1AB (rat neuroligin 1 cholinesterase-like region, with inserts A and B) (Q62765 48-638): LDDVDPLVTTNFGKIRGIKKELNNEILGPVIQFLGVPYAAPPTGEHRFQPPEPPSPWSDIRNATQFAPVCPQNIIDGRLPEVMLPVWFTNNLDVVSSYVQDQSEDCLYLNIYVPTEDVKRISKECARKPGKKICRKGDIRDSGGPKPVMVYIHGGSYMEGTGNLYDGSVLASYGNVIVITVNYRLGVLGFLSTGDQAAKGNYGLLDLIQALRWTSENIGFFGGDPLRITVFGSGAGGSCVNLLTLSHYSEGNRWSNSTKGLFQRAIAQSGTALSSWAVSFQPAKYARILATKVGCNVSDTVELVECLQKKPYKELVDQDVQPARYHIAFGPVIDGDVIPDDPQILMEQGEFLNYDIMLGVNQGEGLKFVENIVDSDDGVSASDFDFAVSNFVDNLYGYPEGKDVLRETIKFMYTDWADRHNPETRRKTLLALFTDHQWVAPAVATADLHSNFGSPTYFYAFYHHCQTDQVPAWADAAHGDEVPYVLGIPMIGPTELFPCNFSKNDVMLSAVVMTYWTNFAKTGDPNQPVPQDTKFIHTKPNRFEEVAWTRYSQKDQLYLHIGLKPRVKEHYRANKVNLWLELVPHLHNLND

Binder	Kd [1]	Kd [2]	Kd [3]
β-NRX1+4 (mouse β-neurexin 1 LNS domain, with splice insert 4) (domain or fragment, N-glycosylation at Asn184) not shown	3.17 µM	2.82 µM	21 µM
β-NRX2+4 (rat β-neurexin 2 LNS domain, with splice insert 4) (domain or fragment, N-glycosylation at Asn186) not shown	3.01 µM	5.66 µM	48 µM
